Test results published in US20090018083A1.

Key:
[1] = target: T1, BCL6-3C BTB domain (human BCL6 residues 5-129 with C8Q/C67R/C84N) (human), P41182; assay: ITC in solution, 25° C; ITC in solution, not SPR; settings: remark: other sources report otherwise
[2] = target: T1, BCL6-3C BTB domain (human BCL6 residues …); assay: ITC in solution, 25° C; settings: remark: other sources report otherwise

Kd [1]: 11.4 µM
-TΔS [2]: 16.4
stoichiometry (SMRT peptides per BCL6 chain) (SMRT peptides per BCL6 chain) [2]: 1.11
ΔH [2]: -23.2 kcal/mol
Binder: LVATVKEAGRSIHEIPR [SMRT^1414-1430 peptide (SMRT-BBD), no additional N-terminal residues]
